Source: US8796227B2, “Peptides for inhibiting chemokine binding to chemokine receptors” (Biokine Therapeutics Ltd., priority 2002, dated 2014)
Entries after “also recorded” stand apart in the source; their conditions may differ. Bridges are numbered along the chain shown (N, C = ends). Where no end group is shown, it is not given here.

How the values were obtained:
SDF-1α = target: T1, SDF-1α (Homo sapiens, UniProt P48061); experiment: ELISA analysis of the synthetic chemokine-binding peptide; conditions: chemokine-coated wells, specific binding = at least two fold of binding to control proteins (BSA, Actin, Fibronectin)
T1 construct: purchased PeproTech, Inc. 300-28A
Protocol: (§1) Recombinant chemokines were ordered from PeproTech, Inc. (Rocky Hill, N.J., USA). Human SDF-1α (Cat. No. 300-28A), human MIG (Cat. No. 300-26) and human IL-8, (72 amino acids) (Cat. No. 200-08M), belong to the alpha-chemokines (C-X-C) family. Human MCP-1 (MCAF) (Cat. No. 300-04) and human Eotaxin (Cat No. 300-21) belong to the beta-chemokines (C-C family). All chemokines were prepared according to the company recommendations.
(§2) Peptides were synthesized in the Weizmann Institute of Science, Rehovot, Israel, in order to perform tests for characterization of their influence on the biological activity of the chemokines. The format of the various synthesized peptides was as follows: The cyclic peptides, ACX7CGGGSK-biotin-G and the linear peptides, X12GGGSK-biotin-G. The peptides were biotinylated on their C-termini; the biotin will serve as a detector during the following experiments. Each synthetic peptide was dissolved to concentration of 1 mg/ml (˜0.6 mM) in 4% DMSO (Dimethyl Sulphoxide, Sigma, Cat. # D-2650).
(§3) NUNC-Immuno™ MaxiSorp™ plates (Cat. No. 4-42404) were coated with the appropriate chemokine (0.1 ml/well, 0.1-1.0 μg/ml in 0.1 M NaHCO3, pH 8.6), overnight at 4° C. The plates were then blocked with 0.2 ml/well of blocking buffer (5 mg/ml BSA in 0.1 NaHCO3). Control wells were treated with blocking buffer alone, with no addition of target protein (chemokine). The plates were washed 6 times with PBST (0.1% Tween 20 in PBS), followed by incubation for 45 minutes at room temperature with 10-fold serial dilutions of individual synthetic peptides (10pg-10 μg) with 1% BSA (PBST-BSA)/well. After the plates were washed 6 times with PBST, the bound peptides were probed by HRP-SA Conjugate, diluted 1:10,000 to 1:20,000 in PBST-BSA, 0.1 ml/well for 45 minutes at room temperature. The target-bound synthetic peptides probed with HRP-SA were quantified by DAKO TMB one-step substrate system, followed by the addition of stop solution, HCl—H2SO4 mixture (0.1 ml/well) (1N HCl, 3N H2SO4). The results were analyzed by ELISA reader at OD450.
(§4) The present invention identifies chemokine-binding peptides with biological activity. The binding specificities of the various peptides to the chemokines were determined by screening against BSA, Actin and Fibronectin-coated wells as negative controls in parallel experiments. The binding level of the peptides to the various chemokines, which reached at least two fold of the binding level to the control proteins, was considered a specific binding.
(§5) The specific binding of the peptides was detected by screening methodology, using ELISA, as described in “Materials and Methods”, employing microplates coated with the various chemokines to be checked. The binding specificities of the various peptides to the various chemokines were determined by screening against BSA, Actin and Fibronectin-coated wells as negative controls in parallel experiments.
(§6) Again, the specificity of the binding, either to one chemokine or more, was established by comparing binding level with the control binding level to non-related proteins, (shown in the Figure as a broken line).

[1] = tested on: chemokines MCP-1, SDF-1α, MIG, Eotaxin and IL-8; experiment: ELISA binding to the panel of chemokines (chemokine not singled out); set-up: species or system human; conditions: five chemokines tested, control binding level = one fold
Protocol: as §1, §2, §3
The present invention identifies chemokine-binding peptides with biological activity. The binding specificities of the various peptides to the chemokines were determined by screening against BSA, Actin and Fibronectin-coated wells as negative controls in parallel experiments. […]
The specific binding of the peptides was detected by screening methodology, using ELISA, as described in “Materials and Methods”, employing microplates coated with the various chemokines to be checked. The binding specificities of the various peptides to the various chemokines were determined by screening against BSA, Actin and Fibronectin-coated wells as negative controls in parallel experiments. […]

Human MCP-1 = target: T2, Human MCP-1 (Homo sapiens, UniProt P13500); experiment: ELISA analysis of the synthetic chemokine-binding peptide; conditions: chemokine-coated wells, specific binding = at least two fold of binding to control proteins (BSA, Actin, Fibronectin)
T2 construct: purchased PeproTech, Inc. 300-04
Protocol: as §1, §2, §3, §4, §5, §6

Eotaxin = target: T3, Eotaxin (Homo sapiens, UniProt P51671); experiment: as above; conditions: chemokine-coated wells, specific binding = at least two fold of binding to control proteins (BSA, Actin, Fibronectin)
T3 construct: purchased PeproTech, Inc. 300-21
Protocol: as §1, §2, §3, §4, §5, §6

human IL-8 = target: T4, human IL-8 (Homo sapiens, UniProt P10145); experiment: as above; conditions: chemokine-coated wells, specific binding = at least two fold of binding to control proteins (BSA, Actin, Fibronectin)
T4 construct: human IL-8, (72 amino acids) (Cat. No. 200-08M); purchased PeproTech, Inc. 200-08M
T4 sequence (P10145 28-99 limits assumed): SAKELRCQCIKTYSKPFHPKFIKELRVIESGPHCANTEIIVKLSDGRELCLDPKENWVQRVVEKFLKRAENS
Protocol: as §1, §2, §3, §4, §5, §6

MIG [2] = target: T5, MIG (Homo sapiens, UniProt Q07325); experiment: as above; conditions: chemokine-coated wells, specific binding = at least two fold of binding to control proteins (BSA, Actin, Fibronectin)
T5 construct: purchased PeproTech, Inc. 300-26
T5 sequence (Q07325 23-125): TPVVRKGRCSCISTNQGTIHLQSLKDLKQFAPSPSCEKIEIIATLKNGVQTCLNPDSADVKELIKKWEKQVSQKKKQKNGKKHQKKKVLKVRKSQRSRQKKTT
Protocol: as §1, §2, §3, §4, §5, §6

MIG [3] = target: T5, MIG; experiment: Biovalidation: laminar flow assay, chemokine and VCAM-1 activated adhesion of T cells; type: cell-based; conditions: VCAM-1
Protocol: 50 ml blood was added to 10 ml Dextran (Dextran T-500 6% w/v) in PBS (phosphate buffer saline), and 7 ml citrate buffer (25 g citrate, 8 g citric acid in 500 ml PBS). The solution was incubated for 30 min at 25° C. 10 ml Ficoll 1077 (Sigma) was added to the bottom of the tube. The tube was then centrifuged at 2,000 rpm for 30 min, at 18° C., (with the brake mode of the centrifuge off). The interphase was collected and washed twice with 8 ml PBS-5% FCS (fetal calf serum), followed by centrifugation at 1,400 rpm, for 5 min, at 18° C. The cells were re-suspended in PBS-5% FCS at a concentration less than 10^8/ml. 2 ml of the cell solution were applied and incubated for 45 min at 25° C. on a Perspex Nylon wool column, which was pre-soaked with PBS-5% FCS. Each column was washed with 8 ml PBS-5% FCS and the cells (T-cells and erythrocytes) were eluted by 50 ml of 5 mM EDTA in PBS. A red pellet was obtained by centrifugation at 1,400 rpm, at 4° C., for 5 min, with the brake on. In order to perform lysis of the erythrocytes, the red pellet was re-suspended in 5 ml lysis-buffer (155 mM NH4Cl, 10 mM KHCO3, 0.1 mM EDTA, X0.1PBS) for 4 min, followed by immediate addition of 50 ml of PBS-EDTA.
Following centrifugation at 1,400 rpm, at 4° C., for 5 min with brake on, the pellet was washed again with 50 ml PBS-EDTA and re-centrifuged under the same conditions. A white pellet was obtained and re-suspended in RPMI/10% FCS/L-glutamine/sodium pyruvate/antibiotics at a concentration of 3^X10^6 cells/ml. The cells were incubated for 2 h at 37° C., followed by collection of the non-adherent cells. The cells were ready for use in experiments after overnight incubation at 37° C. […]
Laminar flow assays were performed as follows. Polystyrene plates (B.D) were coated with soluble VCAM-1 at 10 μg/ml in the presence of 2 μg/ml HSA carrier. The plates were washed three times with PBS and blocked with HSA (20 μg/ml in PBS) for 2 hrs at room temperature. Alternatively, washed plates were coated with 10 μg/ml MIG chemokine in PBS for 30 min at room temperature, before being blocked with HSA. The plates were assembled as the lower wall of a parallel wall flow chamber and mounted on the stage of an inverted microscope. The peptide, as described previously, (10 μg/ml) was allowed to settle on the substrate coated chamber wall for 10 min, at 37° C. and then washed. T cells (5×10^6/ml, purity >98%) were suspended in binding buffer, perfused into the chamber and allowed to settle on the substrate coated chamber wall for 1 min, at 37° C. Flow was initiated and increased in 2 to 2.5 fold increments every 5 sec. generating controlled shear stresses on the wall. Cells were visualized in a 20× objective of an inverted phase-contrast Diaphot Microscope (Nikon, Japan) and photographed with a long integration LIS-700 CCD video camera (Applitech; Holon, Israel), connected to a video recorder (AG-6730 S-VHS, Panasonic, Japan). The number of adherent cells resisting detachment by the elevated shear forces was determined after each interval by analysis of videotaped cell images, and was expressed as the percent of originally settled cells. All adhesion experiments were performed at least three times on multiple test fields.

T3 sequence (P51671 24-97): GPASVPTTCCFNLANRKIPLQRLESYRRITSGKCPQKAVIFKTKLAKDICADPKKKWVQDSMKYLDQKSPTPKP
T2 sequence (P13500 24-99): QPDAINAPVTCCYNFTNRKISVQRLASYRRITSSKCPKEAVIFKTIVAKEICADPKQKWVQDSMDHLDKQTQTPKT
T1 sequence (P48061 22-89 limits assumed): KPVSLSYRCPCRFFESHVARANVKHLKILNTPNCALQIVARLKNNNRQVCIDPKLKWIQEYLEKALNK

Sequence: SQTLPYSNAPSP [BKT-P1]
- Bound chemokines (at least): SDF-1α (SDF-1α): bind and found to bind SDF-1α
- Binding to the various chemokines [1]: bind specifically to various chemokines; also recorded: specifically to more than one chemokine

Sequence: CKESATYFC (ACKESATYFCGGGS-{K(biotin)-Gly}; disulfide 2-10 (inferred)) [BKT-P18]
- Binding to the various chemokines [1]: no binding to the various chemokines

Sequence: FSMDDPERVRSP [BKT-P9]
- Binding to the various chemokines [1]: bind specifically to a single chemokine; also recorded: specifically bind to one specific chemokine

Sequence: HHTWDTRIWQAF [BKT-P55]
- Bound chemokines (at least): MCP-1 (Human MCP-1): MCP-1

Sequence: GVHKHFYSRWLG [BKT-P33]
- Bound chemokines (at least): Eotaxin (Eotaxin): Eotaxin

Sequence: CHHNLSWEC [BKT-P56]
- Bound chemokines (at least): SDF-1α (SDF-1α): SDF-1α

Sequence: LLADTTHHRPWP [BKT-P37]
- Bound chemokines (at least): IL-8 (human IL-8): IL-8

Sequence: LGFDPTSTRFYT [BKT-P22]
- Bound chemokines (at least): Eotaxin (Eotaxin): bind and found to bind Eotaxin

Sequence: HSACHASLKHRC [BKT-P49]
- Bound chemokines (at least): MCP-1 (Human MCP-1): MCP-1

Sequence: CAHLSPHKC [BKT-P50]
- Bound chemokines (at least): MIG (MIG [2]): MIG

Sequence: SFWHHHSPRSPL [BKT-P31]
- Bound chemokines (at least): Eotaxin (Eotaxin): Eotaxin

Sequence: GDFNSGHHTTTR [BKT-P27]
- Bound chemokines (at least): MCP-1 (Human MCP-1): MCP-1

Sequence: SIPSHSIHSAKA [BKT-P2]
- Bound chemokines (at least): Eotaxin (Eotaxin): Eotaxin
- Bound chemokines (at least): MCP-1 (Human MCP-1): MCP-1,
- Bound chemokines (at least): IL-8 (human IL-8): IL-8
- Level of Antagonistic Effect (MIG [3]; Chemokine checked MIG, T cells, peptide 10 μg/ml): ++ (++ 50%)
- Reduction of the activity of MIG (MIG [3]; T cell adhesion under flow): about 50%

Sequence: HPTTPFIHMPNF (HPTTPIHMPNF) [BKT-P54]
- Bound chemokines (at least): MIG (MIG [2]): MIG
